Data: patent publication US20210340238A1, “TGFß1 INHIBITORS AND USE THEREOF” (Scholar Rock, Inc., priority 2018, published 2021)
“Also recorded” adds a separate entry of the source.

Columns and labels:
human proTGFβ1 C4S/R249A = molecular target: T1, human proTGFβ1 C4S/R249A (Homo sapiens, UniProt P01137, C33S/R278A); assay: X-ray crystallography of proTGFβ1:Ab2-Fab:AbX-Fab ternary complex; assay type: binding; conditions: numbering after removal of signal sequence
T1 construct: made in house; host or cells: expi293 (kifunensine-treated), co-expressed with Ab2-Fab
Source text: In this work, an uncleavable human proTGFβ1 C4S/R249A variant was used that spans residues 30-390 based on the full-length sequence of human proTGFβ1 (Uniprot ID P01137). The numbering system that will be used for the rest of this document will designate position 1 as the first amino acid residue after the removal of the signal sequence for proTGFβ isoforms. The C4S mutation renders proTGFβ1 not capable of covalent crosslinking to any known presenting molecules, e.g. LTBPs and GARP, while the R249A renders proTGFβ1 resistant to proprotein convertase/furin protease cleavage, thus maintaining proTGFβ1 in its uncleaved, proprotein form. ProTGFβ1 C4S/R249A was co-expressed with C-terminally 6×-His tagged Ab2-Fab in kifunensine-treated expi293 mammalian expression system to reduce N-linked glycosylation events. The proTGFβ1 C4S/R249A:Ab2-Fab was affinity purified, treated with endoglycosidase H and purified by gel filtration. The proTGFβ1 C4S/R249A:Ab2-Fab complex was then incubated with AbX-Fab to generate the ternary complex. The AbX Fab in this context was used as an auxiliary protein, which acts as a crystallization chaperone to increase the probability of obtaining protein crystals.
Crystallization experiments were performed at room temperature in a sitting drop format. […]

[1] = Effective dose and therapeutic window across preclinical models (summary); assay type: in vivo
Source text: Effective amount: An “effective amount” (or therapeutically effective amount, or therapeutic dose) is a dosage, concentration, or dosing regimen that achieves statistically significant clinical benefits (e.g., efficacy) in a patient population.
Therapeutic window: The term “therapeutic window” refers to a range of doses/concentrations that produces therapeutic response without causing significant/observable/unacceptable adverse effect (e.g., within adverse effects that are acceptable or tolerable) in subjects. Therapeutic window may be calculated as a ratio between minimum effective concentrations (MEC) to the minimum toxic concentrations (MTC).

[2] = test system: TGFβ signaling (Smad2/3 phosphorylation; Col1a1, Col3a1, Fn1); assay: Col4a3−/− genetic model of Alport syndrome (kidney pSmad2/3 ELISA, qPCR); assay type: in vivo, mouse
Source text: The murine Col4a3−/− model is an established genetic model of autosomal recessive Alport syndrome. Alport mice lack a functional collagen 4A3 gene (Col4A3−/−) and therefore cannot form normal type IV collagen trimers, which require α3, α4, and α5 chains. Col4a3−/− mice develop fibrosis in the kidney consistent with renal fibrosis in human patients, including interstitial fibrosis and tubular atrophy, and Col4a3−/− mice develop end-stage renal disease (ESRD) between 10 and 30 week of age, depending on the genetic background of the mouse. The structural and functional manifestation of renal pathology in Col4a3−/− mice, combined with the progression to ESRD make Col4a3−/− mice an ideal model to understand kidney fibrosis. Previous reports point to the importance of the TGFβ signaling pathway in this process, and treatment with either […], a known activator of TGFβ, or with a TGFβ ligand trap has been reported to prevent renal fibrosis and inflammation in Alport mice (Hahm et al. (2007) The American Journal of Pathology, 170(1): 110-125).
F1 offspring from Col4a3+/− males on a 129/Sv genetic background crossed to Col4a3+/− females on a C57/Bl6 genetic were employed for the study.
It is well documented that TGFβ receptor activation leads to a downstream signaling cascade of intra cellular events, including phosphorylation of Smad2/3. […] FIG. 7A provides a graph showing relative ratios of phosphorylated vs. total (phosphorylated and unphospohrylated) Smad2/3.
An IgG was used as negative control in both heterozygous (Col4a3+/−; Het) and knock out (Col4a3−/−; KO) mice. Following six weeks of antibody treatment (12 weeks after birth), animals were sacrificed, and the kidneys were collected for analyses.
To assess the functional effect of TGFβ inhibition, a third study was carried out in the Col4a3−/− model of kidney fibrosis. […] Treatment effect was assessed by gene expression, which was evaluated by quantitative polymerase chain reaction (qPCR) using cDNA generated from the kidneys of mice in this study.

[3] = 4-week rat toxicology study (weekly dosing); assay type: in vivo
Source text: Animals were sacrificed and necropsies performed.

Cell-associated proTGFβ1 = assay: Octet binding, cell average of hGARP and hLRRC33 complexes; parameters: species or system human; conditions: average KD of (E) and (F), read-out: (G) Cell AVRG
Source text: Column (A) of the table provides monoclonal antibodies with discrete amino acid sequences. […] Columns (B), (C), (E) and (F) provide affinities of each of the listed antibodies, measured in KD, towards the antigen complex as indicated, respectively. […] Average KD values calculated from (B) and (C) are shown in the corresponding column (D), which collectively represents affinities of the antibodies to ECM- or matrix-associated proTGFβ1 complexes. Similarly, Average KD values calculated from (E) and (F) are shown in the corresponding column (G), which collectively represents affinities of the antibodies to cell-surface or cell-associated proTGF complexes. Finally, relative ratios between the average KD values from columns (D) and (G) are expressed as fold bias” in column (H). Thus, the greater the numerical of column (H) is, the greater bias exists for the particular antibody, when comparing binding preferences of the antibody for matrix-associated complexes to cell-surface complexes. This is one way of quantitatively representing and comparing inherent bias of antibodies to their target complexes. Such analyses may be useful in guiding the selection process for a candidate antibody for particular therapeutic use.

T1 sequence (P01137 30-390 C33S/R278A): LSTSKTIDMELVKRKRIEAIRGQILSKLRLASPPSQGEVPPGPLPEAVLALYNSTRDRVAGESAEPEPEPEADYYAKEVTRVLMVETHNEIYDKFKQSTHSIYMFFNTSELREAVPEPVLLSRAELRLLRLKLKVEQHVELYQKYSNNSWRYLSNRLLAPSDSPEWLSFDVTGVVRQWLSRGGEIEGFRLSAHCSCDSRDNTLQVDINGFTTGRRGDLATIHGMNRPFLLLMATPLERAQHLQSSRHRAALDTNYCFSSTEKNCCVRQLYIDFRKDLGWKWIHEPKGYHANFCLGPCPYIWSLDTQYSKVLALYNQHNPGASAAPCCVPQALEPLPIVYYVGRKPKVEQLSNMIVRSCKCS

B1: Ab2: isoform-selective inhibitor of TGFβ1 activation; VH SEQ ID NO: 13, VL SEQ ID NO: 15; human IgG4 (antibody, V domains shown)
VH: EVQLLESGGGLVQPGGSLRLSCAASGFTFADYAMTWVRQAPGKGLEWVSAISGSGAATYFADSVKGRFTISRDNSKNTLYLQMNSLRAEDTAVYYCARVSSGHWDFDYWGQGTLVTVSS
VL: DIQLTQSPSSLSASVGDRVTITCRASQSISSYLNWYQQKPGKAPKLLIYAASNLQSGVPSRFSGSGSGTDFTLTISSLQPEDFATYYCQQTYTVPLTFGGGTKVEIK
modifications: human IgG4 constant regions
Question: For B1, which “Epitope on proTGFβ1 from crystal structure” value (human proTGFβ1 C4S/R249A) is on record?
Answer: linear epitope formed by residues 35-43

Question: And the Effective amount [1]?
Answer: 3 to 30 mg/kg

Question: And the “Expression of Col1a1, Col3a1 and Fn1 in kidney (qPCR)” value ([2]; 5 mg/kg i.p. twice a week from week 6 to week 14, Col4a3−/− mice)?
Answer: significantly reduced the expression of Col1a1 and Col3a1; also recorded: Expression of Fn1 showed a similar trend in Ab2-treated Col4a3−/− mice, though this effect was not statistically significant

Question: What about the “Relative ratio of phosphorylated vs. total Smad2/3 in whole kidney lysates” value ([2]; i.p. twice weekly for six weeks from week 6, Ab3 5 or 1.5 mg/kg, Ab2 1.5 mg/kg, vs IgG treated Col4a3−/− mice) of the same molecule?
Answer: significant reduction in relative phosphorylation of Smad2/3

Question: What about the “Relative ratio of phosphorylated vs. total Smad2/3 in whole kidney lysates” value ([2]; single 10 mg/kg i.p. dose 48 hours before sacrifice, 9 week old Col4a3−/− mice) of the same molecule?
Answer: sufficient to significantly inhibit pSmad2/3 signaling

Question: And the Test article-related toxicity ([3]; once weekly for 4 weeks up to 100 mg/kg, Fischer 344 or SD rats)?
Answer: free of observable toxicities associated with pan-inhibition of TGFβ; also recorded: no observable test article-related toxcity in either rat strain; also recorded: no toxic effects over background

Question: And the MTD ([3]; rats, suggested from NOAEL of four-week toxicology study)?
Answer: > 100 mg/kg

Question: And the NOAEL ([3]; rats, weekly dose for 4 weeks, highest dose tested)?
Answer: 100 mg/kg

Question: And the Kd (Cell-associated proTGFβ1)?
Answer: 0.643 nM
